# Data: patent US20210396736A1, “SCREENING ASSAY” (The University of Bath, priority 2018, published 2021)
# B1: Acidic FosW: library-derived peptide able to dissociate the cJun bZIP protein from the TRE sites in TRE mDHFR (peptide)
# peptide: MASLEQRAEELARENEELEKEAEELEQELDELQAEIEQLEERNYALRKEIEDLQKQLEKLGAP
# What was measured:
# cJun bZIP = target: T1, cJun bZIP (Homo sapiens, UniProt P05412, S292Y); experiment: Further TBS assay experiment, Example 3 (colony count, FIG. 3); assay type: cell-based; conditions: for rescue of DHFR expression / change in number of colonies compared to plate 2: co-expressed with TRE mDHFR and cJun bZIP
# T1 construct: cJun with the basic region and leucine zipper (cJun bZip); expressed in transfected cells
# T1 sequence (P05412 252-315 S292Y limits assumed): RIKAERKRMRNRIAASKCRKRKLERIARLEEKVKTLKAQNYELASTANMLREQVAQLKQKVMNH
# Text: This experiment used similar plasmids to those set out in Example 1, with the exception that pET24a was used to express both the lac repressor and test compound using a single plasmid. Specifically, three plasmids were used: i) p300d expressing the mDHFR gene modified to include 15 TREs (TRE mDHFR, generated as described in Example 1); ii) p230d expressing either the leucine zipper part of cJun (cJun LZ) or cJun with the basic region and leucine zipper (cJun bZip); iii) pET24a expressing the lac repressor and either the leucine zipper part of cFos (cFos LZ) or the acidic FosW peptide (acidic FosW).
# Plates were generated as set out in the following table:
# The number of colonies produced in each plate were counted and this quantification is illustrated in FIG. 3.
# AP-1 = AP-1 driven luciferase gene reporter assay; assay type: cell-based, mammalian; conditions: transfected, versus control and dummy vector; FIG. 2
# Text: Wild-type AP-1 proteins have a long stretch of basic amino acids at the N-terminal of the protein which enables DNA binding. Acidic versions of AP-1 proteins can be generated with a long stretch of negatively charged amino acids (in place of the positive) which can serve as a DNA mimic. Acidic AP-1 peptide variants can therefore form heterodimers with wild type AP-1 proteins driven by both the dimerization motif and the negative/positive charge interaction, resulting in their sequestration from the DNA.
# In order to test whether the peptides identified as being functional antagonists in the TBS assay are also likely to have the same activity in eukaryotic cells, a AP-1 driven luciferase gene reporter assay was carried out. This assay was carried out using no transfection (control), transfected dummy vector, acidic c-Jun, acidic c-Fos and library-derived peptide treated (FosW).
# [1] = co-expressed with TRE mDHFR and cJun bZIP (plates 2 and 3)
Molecule,rescue of DHFR expression / change in number of colonies compared to plate 2 (cJun bZIP),number of bacterial colonies (cJun bZIP; [1]),number of bacterial colonies (cJun bZIP; control plate 1: co-expressed with TRE mDHFR and cJun LZ (no basic DNA-binding region)),AP-1 driven luciferase activity (AP-1)
cFos LZ: the leucine zipper part of cFos; binds the coiled-coil region of cJun (MASTDTLQAETDQLEDEKYALQTEIANLLKEKEKLGAP),not able to rescue expression of the DHFR protein,< 20 colonies,> 300 colonies,–
B1,substantial increase in the number of colonies,> 200 colonies,–,dramatic reduction in the signal
